Experimental data as given in PMC9731866 (The Journal of Biological Chemistry, 2022).

Molecular target: the molecule itself
Assay: SEC-MALS; low concentration (1 mg/ml); Superdex 200 10/300 GL, 24 °C, 10 mM Hepes pH 7.4, 200 mM NaCl, 5 mM β-ME; N counts the units (heterodimers or heterotetramers) in the oligomer

B1: αMγ heterodimer of HsIDH3 (α-Q139A with γ) (complex, human)
chain 1: TGGVQTVTLIPGDGIGPEISAAVMKIFDAAKAPIQWEERNVTAIQGPGGKWMIPSEAKESMDKNKMGLKGPLKTPIAAGHPSMNLLLRKTFDLYANVRPCVSIEGYKTPYTDVNIVTIRENTEGEYSGIEHVIVDGVVASIKLITEGASKRIAEFAFEYARNNHRSNVTAVHKANIMRMSDGLFLQKCREVAESCKDIKFNEMYLDTVCLNMVQDPSQFDVLVMPNLYGDILSDLCAGLIGGLGVTPSGNIGANGVAIFESVHGTAPDIAGKDMANPTALLLSAVMMLRHMGLFDHAARIEAACFATIKDGKSLTKDLGGNAKCSDFTEEICRRVKDLD
chain 2: FSEQTIPPSAKYGGRHTVTMIPGDGIGPELMLHVKSVFRHACVPVDFEEVHVSSNADEEDIRNAIMAIRRNRVALKGNIETNHNLPPSHKSRNNILRTSLDLYANVIHCKSLPGVVTRHKDIDILIVRENTEGEYSSLEHESVAGVVESLKIITKAKSLRIAEYAFKLAQESGRKKVTAVHKANIMKLGDGLFLQCCREVAARYPQITFENMIVDNTTMQLVSRPQQFDVMVMPNLYGNIVNNVCAGLVGGPGLVAGANYGHVYAVFETATRNTGKSIANKNIANPTATLLASCMMLDHLKLHSYATSIRKAVLASMDNENMHTPDIGGQGTTSEAIQDVIRHIRVINGRAVEA
notes: α subunit of human IDH3 (HsIDH3), Q139A; γ subunit of human IDH3 (HsIDH3); One α and one γ chain; the heterodimer is the unit that associates into the (αMγ)2 heterotetramer; also called α_(Q139A)γ; mutant αγ heterodimer; source: E. coli BL21 (DE3) Codon-Plus, co-expressed from pQlinkN-α-γ-tev-His6, purified (Ni-NTA, TEV cleavage, gel filtration); not shown: His6, C-terminal, cleaved
stoichiometry N: 2
